Results taken from US9051356.

Target: synthetic glycosylated MUC1 30-mer peptide …[GalNAcalpha]…
Experiment: ELISA on plate-coated glycosylated MUC1 30-mer peptide, antibody 1-400 ng/ml, anti-human Fcgamma1-peroxidase detection

synthetic glycosylated MUC1 30-mer peptide …[GalNAcalpha]…, sequence (peptide, as listed by the source): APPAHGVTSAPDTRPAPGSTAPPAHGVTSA

## chimeric PankoMab isolated from NM-F9 cells (antibody)
  binding activity, percent higher than that of the same antibody isolated from CHOdhfr- cells: 50%
